Ends that are not written are not given here.
Target: T1, GST-IgFLNa21 (amino acids 2236–2329) (human, UniProt P21333 2236-2329)
T1 sequence (looked up): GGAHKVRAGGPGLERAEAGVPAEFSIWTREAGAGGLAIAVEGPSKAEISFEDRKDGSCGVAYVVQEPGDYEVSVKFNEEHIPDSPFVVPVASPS
Assay: pull-down

B1: recombinant His-tagged integrin β7 cytoplasmic tail model protein (domain or fragment, UniProt P26010 747-798, looked up)
chain: RLSVEIYDRREYSRFEKEQQQLNWKQDSNPLYKSAITTTINPRFQEADSPTL
modifications: also: His-tagged, tag place not given here
  Kd: 700 ± 100 nM
